Patent publication US20170340698A1, “CYCLIC PEPTIDE SPECIFICALLY BINDING TO APOPTOTIC CELLS AND USE THEREOF” (KYUNGPOOK NATIONAL UNIVERSITY INDUSTRY-ACADEMIC COOPERATION …, priority 2014, published 2017)

How the values were obtained:
[1] = target: histone H1 present on surfaces of apoptotic cells (apoptotic SNU16 human stomach cancer cells) (human) (UniProt P07305); test: flow cytometry, FITC-peptide on SNU16 cells treated with cisplatin and cetuximab in combination for 24 h
[2] = target: histone H1 present on surfaces of apoptotic cells (apoptotic SNU16 human stomach cancer cells) (human) (UniProt P07305); test: flow cytometry, FITC-peptide on SNU16 cells treated with cisplatin alone for 24 h
[3] = target: histone H1 present on surfaces of apoptotic cells (apoptotic SNU16 human stomach cancer cells) (human) (UniProt P07305); test: flow cytometry, FITC-peptide on SNU16 cells treated with cetuximab alone for 24 h

Substance | percentage of apoptotic cells detected (peptide-bound fluorescent cells) [1] [%] | percentage of apoptotic cells detected (peptide-bound fluorescent cells) [2] [%] | percentage of apoptotic cells detected (peptide-bound fluorescent cells) [3] [%]
cyclic form of ApoPep-1 (cyclo[Cys-Gln-Arg-Pro-Pro-Arg-Cys] peptide) | 78 | 56 | 49
linear form of ApoPep-1 (CQRPPR) (peptide) | 34 | 28 | 25
